According to article PMC11211324 (2024):

Molecular target: KRAS-LgBiT (UniProt P01116 1-189)
Test: NanoBiT in 293T cells

Sequence of KRAS-LgBiT (P01116 whole entry): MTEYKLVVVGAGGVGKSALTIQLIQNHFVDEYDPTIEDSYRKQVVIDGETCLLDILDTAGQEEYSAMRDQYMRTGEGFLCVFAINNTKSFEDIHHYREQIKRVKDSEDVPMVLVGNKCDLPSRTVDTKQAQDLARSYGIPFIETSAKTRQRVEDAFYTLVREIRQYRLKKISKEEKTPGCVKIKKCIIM

Kd: 41.3 nM
B1: TKD (nanobody)-SmBiT (VHH)
VHH: DVQLQESGGGLVQAGGSLRLSCVASGRTFSTYPTGWFRQAPGKEREFVARINLSGGITNYADSVKGRFTISRDNAKNTVYLQMNSLKPEDTAVYYCGGGSTTWAGGIPTNFDYWGQGTQVTVSS
